Measured values as given in US20110250130A1 (AbbVie / Abbott, published 2011).
Changes are numbered by the printed parent chain.

B1: AB256 (antibody, V domains shown)
VH: EVQLVESGGGLVQPGGSLRLSCAVSGFTLSDYGVNWVRQAPGKGLEWLGMIWGDGSTDYDSTLKSRLTISKDNSKSTIYLQMNSLRAEDTAVYYCAREWHHGPVAYWGQGTLVTVSS
VL: DIQMTQSPSSLSASVGDRVTITCKASQAVSSAVAWYQQKPGKAPKLLIYWASTRHTGVPSRFSGSGSGTDFTLTISSLQPEDFATYYCQQHYSTPFTFGQGTKLEIK
notes: also called hMAK195VH.2a / hMAK195VL.1
B2: AB257 (antibody, V domains shown)
VH: B1 VH
VL: B1 VL with A43S
notes: also called hMAK195VH.2a / hMAK195VL.1a
B3: AB261 (antibody, V domains shown)
VH: B1 VH with V24A, L48V, G49S, L67F, S76N, I78L
VL: B1 VL with A43S
notes: also called hMAK195VH.2b / hMAK195VL.1a
B4: AB262 (antibody, V domains shown)
VH: B1 VH with V24A, L48V, G49S, L67F, S76N, I78L
VL: EIVMTQSPATLSLSPGERATLSCKASQAVSSAVAWYQQKPGQAPRLLIYWASTRHTGIPARFSGSGSGTDFTLTISSLQPEDFAVYYCQQHYSTPFTFGQGTKLEIK
notes: also called hMAK195VH.2b / hMAK195VL.2
B5: AB254 (antibody, V domains shown)
VH: B1 VH with V24A, L29F, L48V, G49S, L67F, K71R, S76N, I78L
VL: B4 VL
notes: also called hMAK195VH.2 / hMAK195VL.2
B6: AB255 (antibody, V domains shown)
VH: B1 VH with V24A, L29F, L48V, G49S, L67F, K71R, S76N, I78L
VL: B4 VL with A43S, I58V
notes: also called hMAK195VH.2 / hMAK195VL.2a
B7: AB258 (antibody, V domains shown)
VH: B1 VH
VL: B4 VL
notes: also called hMAK195VH.2a / hMAK195VL.2
B8: AB259 (antibody, V domains shown)
VH: B1 VH
VL: B4 VL with A43S, I58V
notes: also called hMAK195VH.2a / hMAK195VL.2a
B9: AB263 (antibody, V domains shown)
VH: B1 VH with V24A, L48V, G49S, L67F, S76N, I78L
VL: B4 VL with A43S, I58V
notes: also called hMAK195VH.2b / hMAK195VL.2a

Each binder was assayed against T1, Recombinant Human TNF-α/TNFSF1A (human, UniProt P01375 77-233) (assay: SPR (Biacore), antibody captured, TNF-α in solution).
T1 construct: Bought reagent (R&D Systems 210-TA); also called hTNF-α; huTNF-α
T1 sequence (P01375 77-233 limits assumed): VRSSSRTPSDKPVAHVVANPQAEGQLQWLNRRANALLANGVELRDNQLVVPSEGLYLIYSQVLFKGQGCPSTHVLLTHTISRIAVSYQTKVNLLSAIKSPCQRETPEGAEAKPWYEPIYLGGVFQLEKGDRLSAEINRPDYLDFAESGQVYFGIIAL
Experimental: The BIACORE assay (Biacore, Inc. Piscataway, N.J.) determines the affinity of antibodies with kinetic measurements of on-rate and off-rate constants. Binding of antibodies to a target antigen (for example, a purified recombinant target antigen) is determined by surface plasmon resonance-based measurements with a Biacore® 1000 or 3000 instrument (Biacore® AB, Uppsala, Sweden) using running HBS-EP (10 mM HEPES [pH 7.4], 150 mM NaCl, 3 mM EDTA, and 0.005% surfactant P20) at 25° C. All chemicals are obtained from Biacore® AB (Uppsala, Sweden) or otherwise from a different source as described in the text. For example, approximately 5000 RU of goat anti-mouse IgG, (Fcγ), fragment specific polyclonal antibody (Pierce Biotechnology Inc, Rockford, Ill., US) diluted in 10 mM sodium acetate (pH 4.5) is directly immobilized across a CM5 research grade biosensor chip using a standard amine coupling kit according to manufacturer's instructions and procedures at 25 μg/ml. Unreacted moieties on the biosensor surface are blocked with ethanolamine. Modified carboxymethyl dextran surface in flowcell 2 and 4 is used as a reaction surface. Unmodified carboxymethyl dextran without goat anti-mouse IgG in flow cell 1 and 3 is used as the reference surface. For kinetic analysis, rate equations derived from the 1:1 Langmuir binding model are fitted simultaneously to association and dissociation phases of all eight injections (using global fit analysis) with the use of Biaevaluation 4.0.1 software. Purified antibodies are diluted in HEPES-buffered saline for capture across goat anti-mouse IgG specific reaction surfaces. Antibodies to be captured as a ligand (25 μg/ml) are injected over reaction matrices at a flow rate of 5 μl/minute. The association and dissociation rate constants, kₒₙ (M⁻¹s⁻¹) and koff (s⁻¹), are determined under a continuous flow rate of 25 μl/minute. Rate constants are derived by making kinetic binding measurements at different antigen concentrations ranging from 10-200 nM. The equilibrium dissociation constant (M) of the reaction between antibodies and the target antigen is then calculated from the kinetic rate constants by the following formula: KD=koff/kₒₙ. Binding is recorded as a function of time and kinetic rate constants are calculated. In this assay, on-rates as fast as 10⁶ M⁻¹s⁻¹ and off-rates as slow as 10⁻⁶ s⁻¹ can be measured.
B1 gave a Kd of 0.0505 nM, a koff of 0.000177 s⁻¹ and a kon of 3.54e+06 M⁻¹ s⁻¹.
With B2 the Kd was 0.062 nM, the koff was 0.000217 s⁻¹ and the kon was 3.56e+06 M⁻¹ s⁻¹.
B3 showed a Kd of 0.122 nM, a koff of 0.000285 s⁻¹ and a kon of 2.36e+06 M⁻¹ s⁻¹.
Binder B4 has a Kd of 0.136 nM, a koff of 0.00029 s⁻¹ and a kon of 2.14e+06 M⁻¹ s⁻¹.
Binder B5 has a Kd of 0.12 nM, a koff of 0.000287 s⁻¹ and a kon of 2.4e+06 M⁻¹ s⁻¹.
Binder B6 has a Kd of 0.148 nM, a koff of 0.000384 s⁻¹ and a kon of 2.62e+06 M⁻¹ s⁻¹.
B7 gave a Kd of 0.0816 nM, a koff of 0.000244 s⁻¹ and a kon of 3.04e+06 M⁻¹ s⁻¹.
B8 gave a Kd of 0.0677 nM, a koff of 0.000203 s⁻¹ and a kon of 3e+06 M⁻¹ s⁻¹.
With B9 the Kd was 0.169 nM, the koff was 0.000273 s⁻¹ and the kon was 1.61e+06 M⁻¹ s⁻¹.

The binders below were run against T1, Recombinant Human TNF-α/TNFSF1A (assay: cell-based or functional assay).
B1 was tested, and the “TNF-α neutralization assay IC50 (nM), L929 cells” value (“TNF-α neutralization assay IC50” below) was 0.058 nM.
For B2, the “TNF-α neutralization assay IC50” value was 0.077 nM.
In the case of B3, the “TNF-α neutralization assay IC50” value is reported as 0.187 nM.
For B4, the “TNF-α neutralization assay IC50” value was 0.218 nM.
B5 was tested, and the “TNF-α neutralization assay IC50” value was 0.799 nM.
With B6 the “TNF-α neutralization assay IC50” value was 0.477 nM.
B7 was tested, and the “TNF-α neutralization assay IC50” value was 0.078 nM.
With B8 the “TNF-α neutralization assay IC50” value was 0.071 nM.
In the case of B9, the “TNF-α neutralization assay IC50” value is reported as 0.193 nM.
